41 sequences from the nanobody polyreactivity screen of Harvey et al. (2022) can be followed below.

The series in a line: yeast display, Sf9 membrane polyspecificity reagent, FACS + sequencing; frameworks hold sequencing errors. The method, boiled down:
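In a synthetic yeast display library (Saccharomyces cerevisiae BJ5465), nanobody expression was induced with galactose for 36–48 hours. FACS gates were set low and high (top ~1%) using anti-HA fluorescence for expression and streptavidin fluorescence for binding of the Sf9 membrane reagent. Each polyreactivity label is drawn from the gate of origin.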
“QVQLVESGGGLVQAGGSLRLSCAASGFIFGYYAMGWYRQAPGKERELVAAISTRGSTYYADSVKGRFTISRDNAKYTVYLQMNSLKPEDTAVYYCNAGWGYRRDYWGQGTQVTVSS”: the “polyreactivity (PSR sort gate)” value was “high polyreactivity”.

Regarding “QVQLVESGGGLVQAGGSLRLSCAASGFTFWKYAMGWYRQAPGKEREFVPAISWSGGNTYYADSVKGRFTISRDNAKNTVYLQMNSLKPEDTADYYCARRGRYYLYTDDYDYWGQGTQVTVSS”, the “polyreactivity (PSR sort gate)” value is “high polyreactivity”.

As to “QVQLVESGGGLVQAGGSLRLSCAASGFTFRIYTMVWYRPAPRKERELVAAISSRGGSTYYADSVKGRFTISRDNAKNTVYLQMNSLKPEDTAVYYCAASGRVYSSGYDYWGQGTQVTVSS”, the “polyreactivity (PSR sort gate)” value is “high polyreactivity”.

On to “QVQLVESGGGLVQAGGSLRLSCAASGFIFYRYAIGWYRQEPGKERELVAAITRSGRSTYYADSVKGRFTISRDNAKNTVYLQMNSLKAEDTAVYYCAVFGSYWWRGLSEDYWGQGTQVTVSS”, for which the “polyreactivity (PSR sort gate)” value is reported as “high polyreactivity”.

“QVQLVESGGGLVQAGGSLRLSCAASGFTFEKYVMGWYRQAPGKDREFVAAITRSGGRTYYADSVKGRFTISRDNAKNTVSLQMNSLKPEDTAVYYCAAAFSRSDTGGGSSGQGTQVTVSS”: the “polyreactivity (PSR sort gate)” value is reported as “high polyreactivity”.

On to “QVQLVESGGGLVQAGGSLRLSCAASGSIFARYAMGWYRQAPGKERELVAAITSGGITNYADSVKGRFTISRDNAKNTVYLQKNSLKPEDTAVYYCAARRSGRVRYDYWGQGTQVTVSS”, for which the “polyreactivity (PSR sort gate)” value is on record as “high polyreactivity”.

On to “QVQLVESGGGLVQAGGSLRLSCSASGGTFSYYAMGWYRQAPGKERELVASISTDGGSTYYADSVKGRFTISRDNAKNTVYLQMNSLKPEDTAVYYCNARPRGYSDRYGYWGQGTQVTVSS”, for which the “polyreactivity (PSR sort gate)” value is “high polyreactivity”.

Take “QVQLVESGGGLVQAGGSLRLSCAASGLIFYRYAMGWYRQAPGKERELVAVITRSGGNTNYADSVKGRFTISRDNAKNTVYLQMNSLKPEDTAVYYCATRGIWKKVPYYYWGQGTQVTVSS”: the “polyreactivity (PSR sort gate)” value was “high polyreactivity”.

“QVQLVESGGGLVQAGGSLRLSCAASGRIIRVNAMGWYRQAPGKERELVAAISGRGGSTYYADSVKGRFTISRDNAKITVYLQMNSLKPEDTAVYYCAKKSYSYGYNSYDYWGQGTQVTVSS”: the “polyreactivity (PSR sort gate)” value is on record as “high polyreactivity”.

As for “QVQLVESGGGLVQAGGSLRLSSAASGIIFDYNAMGWYRQAPGKERELVAAISYSGDSTYYADSVKGRFTISRDNAKNTVYLQMNSLKPEDTAVYYCAAVIYFGWWYVYTEDDYWGQGTQVTVSS”, the “polyreactivity (PSR sort gate)” value is on record as “high polyreactivity”.

Regarding “QVQLVESGGGLFQAGGSLRLSCAASGINFYKYSMGWYRQAHRKERELVAAITSGGGRTYYADSVKGRFTISRDNAKNTVYLQMNSLKPEDTAVYYCAATRPASYAAYDYWGQGTQVTVSS”, the “polyreactivity (PSR sort gate)” value is “high polyreactivity”.

Regarding “QVQLVESGGGLVQAGGSLRLICAASGLIFGRYDMGWYRQAPGKERELVAAISGGTTNYADSVKGRFTISRDNAKNTVYLEMNSLKPEDTAVYYCNAGPSQPGGIFYEYDYWGQGTQVTVSS”, the “polyreactivity (PSR sort gate)” value is recorded as “low polyreactivity”.

On to “QVQLVESGGGLVQAGGSLRLSCAASGFTFYYNAMGWYRQAPGKERELVAAIYSDGSTYYADSVKGRFTISRDNAKNTFYLQMNSLKAEDTAVYYCAVRKAYQYGFYYWGQGTQVTVSS”, for which the “polyreactivity (PSR sort gate)” value is reported as “low polyreactivity”.

With “QVQLVESGGGLVQAGGSLRLSCAASGFTFGRYAMGWYRQAPGKERELVAAITSRGGSTYYADSVKGRFTISRDNAKNTVYLQMNSLKPEDTAVYYCNRDLVDSYGYWGQGTQVTVSS”, the “polyreactivity (PSR sort gate)” value was “high polyreactivity”.

Regarding “QVQLVESGGGLVQAGGSLRLSCPPSGYTISHYAMGWYRQAPGKERELVAGITWSGGSTYYADSVKGRFTISRDNAKNTVYLQMNSLKPEDTSVYFCAAKYYWYYSYSGIPLFDYWGQGTQVTVSS”, the “polyreactivity (PSR sort gate)” value is on record as “low polyreactivity”.

For “QVHLVESGGGLVQAGGSLRLSCAASGRTFSRYAMGWYRQAPGKERELVATITRGGSTNYADSVKGRFTISRDNAKNTVYLQMNSLKPEDTAVYYCNAASFRYQGTLNHFYYWGQGTQVTVSS”, the “polyreactivity (PSR sort gate)” value is listed as “low polyreactivity”.

For “QVQLVESGGGLVQAGGSLRLSCAASGRIFRGNAMGWSRQAPGKERELVAGISVRGGRTYYADSVKGRFTISRDNAKNTVYLQMNSLKPEDTAVYYCAAVFWDDYGKYYYWGQGTQVTVSS”, the “polyreactivity (PSR sort gate)” value is “high polyreactivity”.

Take “QVQLVESGGGLVQAGGSLRLSCAASGFIFVSYAMGWDRQAPGKERELVATITWGGGSTYYADSVKGRFTISRDNAKNTVYLQMNSLKPVDTAVYYCAADYPYSPIFDRYVEYEYWGQGTQVTVSS”: the “polyreactivity (PSR sort gate)” value is reported as “low polyreactivity”.

“QVQLVESGGGLVQAGGSLRLRCAASGSIFISYAMGWYRQAPGKERELVAAISIRGTRTFYADSVKGRFTISRDNAKNTVYLQMNSLKPEDTAVYYCAARAPWPKWGYYYWGQGTQVTVSS”: the “polyreactivity (PSR sort gate)” value is listed as “high polyreactivity”.

Take “QVQLVESGGGLVQAGGSLRLSCAASGSIFTPNAMGWYRQAPGKERALVAAISSSSDRTYYADSVKGRFTISRDNAKNTVYLQMNSLKPEDTAVYYCAAYAQKRYYWGQGTQVTVSS”: the “polyreactivity (PSR sort gate)” value is “high polyreactivity”.

With “QVQLVESGGGLVQAGGSLRLSCAASGSTSRLYAMGWYSQAPGKERELVAAIRYSSGTTYYADSVTVRFTISRDNAKNTVYLQMNSLKPEDTAVYYCAAVTIRRYGPAEYNYWGQGTQVTVSS”, the “polyreactivity (PSR sort gate)” value is reported as “high polyreactivity”.

As to “QVQLVKSGGGLVQAGGSLRLSCAASGRTFWGYAMGWYRQAPGKERELVAAISSGGDTTYADSVKGRCTISRDNAKNTVYLQMNSLKPEDTAVYYCAADRWIPVYILGADGYDYWGQGTHVTVSS”, the “polyreactivity (PSR sort gate)” value was “low polyreactivity”.

On to “QVQLVESGGGLDQAGRSLRLSCAASGSTFPYTAMGWYRQAPGKYRELVAGITDGDGSTSYADSVKGRFTISRDNAKNTVYLQMNCMKPELPAVYYCAARYTYYADEDDYWGQGSQVTVSS”, for which the “polyreactivity (PSR sort gate)” value was “low polyreactivity”.

Regarding “QVQLVESGGGLVQAGGSLRLSCAASGFTFWGNAMGWYRQAPGKERELVAAISRSGGRTYYADSVKGRFTISRDNAKNTVYLQMNSLKPEDTAVYYCAAGSSHHFDYEGGYWGQGTQVTVSS”, the “polyreactivity (PSR sort gate)” value is given as “low polyreactivity”.

Regarding “QVQLVESGGGLVQAGGSLRLSCAASGSIFSTYAMGWYRQAPVKERELVAAINSGDSTSYADSVKGRFTISRDNAKNTVYLQMNSLKPEDTAVYYCAAKTGGYWYLRRTARYESWGQGTQVTVSS”, the “polyreactivity (PSR sort gate)” value is reported as “low polyreactivity”.

On to “QVHLVESGGGLVKAGGSLRLSCAASGRIFDNYVMGWYRQAPGKERELVAAISSGGGTYYADSVKGRFTISLDNAKNTVYLQMNSLKPEDTAVYYCAAAAYYADFDYWGQGTQVTVSS”, for which the “polyreactivity (PSR sort gate)” value is on record as “low polyreactivity”.

Turning to “QVQLVESGGGLVQAGGSLRLSCAASGSILVPNAMGWYRQAPGKERELVAGISANGGSTYYADSVKGRFTISRDNANNTVYLQMNSLKPEDTAVYYCNARLYWDWYGDDYWVQGTQVTVSS”, the “polyreactivity (PSR sort gate)” value was “low polyreactivity”.

With “QVQLVESGGGLVQAGGSLRLSCAPSGRIILRYTMGRYRQARGKERQLVAAISARTTGTYYADSVKGRFTISRDNAKNTFYLQLNSLKPEDTAVYYCAAKCKLSRVLYSWGQGTQVTVSS”, the “polyreactivity (PSR sort gate)” value was “low polyreactivity”.

For the sequence “QVQLVESGGGLVQAGGSLRLSCADSGSTFRFNAMGWYRQAPGKERDLVAAISQSGGSTRYADSVKGRFTISRDNAKNTVYLQMNSLKPEDTAVYYCAARRRWLPGYAWQVAYDSWGQGTQVTVSS”, the “polyreactivity (PSR sort gate)” value was “high polyreactivity”.

On to “QVQLVESGGGLVQAGGSLRLSCAASGRIFRPYAMGWYRQAPGKEREFVATIRFTTGRTYYADSVKGRFTISRDNAKNTVYLQMNSLKPEDTAVSYFAADFAFVNYAKISYTTHDYWGQGTQVTVSS”, for which the “polyreactivity (PSR sort gate)” value was “high polyreactivity”.

In the case of “QVQLVESGGGLVQAGGSLRLSCAASGSTLGRNAMGWDRQAPGKERELVASITRSGGSTYYADSVKGRFTISRDNAKNTVYLQMNSLKPEDTAVYYCAAEVQGQVGEFDYWGQGTQVTVSS”, the “polyreactivity (PSR sort gate)” value is recorded as “low polyreactivity”.

Consider “QVQLVESGGGLVQAGGSLRLSCAASGSIFYYNPMGWYRQAPWKERELVAAITGSGGSTYYADSVKGRFTISRDNAKNTVYLQMNSLKPEDTAVYYCAADYSLYGWWFRNDYWGQGTQVTVSS”, for which the “polyreactivity (PSR sort gate)” value is “low polyreactivity”.

For the sequence “QVQLVESGGGLVQAGGSLRLSCAASGRTFAYNAMGWYRQAPGKERELVAAISGNGGRTYYADSVKGRFTISRDNAKNTVYLQMNSLKPEDTAVYYCNAAVGYYSYSYYTKVGVDYWGQGTQVTVSS”, the “polyreactivity (PSR sort gate)” value is “high polyreactivity”.

Regarding “QVQLQESVGGLVQAGGSLRLSCAASGNIFPTDRMGWYRQAPGKELEFVATNSHGGSTNYADSVKGRFTISRDNAKNTVYLQMNSLKPEDTAVYYCAVWSLGRWRHYYWGQGTQVTVSS”, the “polyreactivity (PSR sort gate)” value was “low polyreactivity”.

In the case of “QVQLVESGGGLVQAGGSLRLSSAASGRTFYRYVMGWYRQAPGKERELVADITRSGGSTYYADSVKGRFTISRDNAKNTVYLQMNSLKPEDTAVYYCAAEFLSSVHVRGMDYWGQGTQVTVSS”, the “polyreactivity (PSR sort gate)” value was “high polyreactivity”.

“QVQLVESGGGLVQAGGSLRLTCAASGRTFRKNAMGWYRQAPGKERELVAAITGSSGTTYYADSVKGRFTISRDNAKNTVYLQMNSLKPEDTAVYYCATTVGDPGRRYYYWGQGTQVTVSS”: the “polyreactivity (PSR sort gate)” value is recorded as “high polyreactivity”.

Turning to “QVQLVESGGGLVQAGGSLRLSCAASGSIFVLNAMGWYRQAPGKERELVATITWRGGSTYYADSVKGRFTISRDNAKNTVYLQMNSLKPEDTAVYYCAKVDIRHHRFYYWGHGTQVTVSS”, the “polyreactivity (PSR sort gate)” value is listed as “low polyreactivity”.

As to “QVHLVESGGGLVQARGSLRLSCAAYGRIFGRNAMGWYRQAPGKERELVAVITFSGGDTFYADSVKGRFTISRDNAKNTVYLQMNSLKPEDTAVYYCAKSQGFETYRNVSIFGYWGQGTQVTVSS”, the “polyreactivity (PSR sort gate)” value is listed as “low polyreactivity”.

As to “QVQLVESGGGLVQAGGSLRLSCASSGSIINRYAMGGYRQAPGKERELVAAITQSGGRTYYADSVKGRFTISRDNAKNTVYLQMNSLKPEDTAVYYCNAVRWYLYDYWGQGTQVTVSS”, the “polyreactivity (PSR sort gate)” value is recorded as “high polyreactivity”.

Consider “QVQLVESGGGLVQAGGSLRLSCAASGIIFASYAMGWYRPAPGKERELVATISRTGGSTRYADSVKGRFTISRDNAKNTVYLQMNSLKPEDTAVYYCAARNPAYDRRYGYWGQGTQVTVSS”, for which the “polyreactivity (PSR sort gate)” value is reported as “high polyreactivity”.

On to “QVQLVESGGGLVQAGGSLRLSCAASGRNFVAYTMGWYRQAPGKERELVAAISTNGGRTYYADSVKGRFTISRDNAKITVYLQMNSLKPEDTAVYYCAAYRGPRADYYWGQGTQVTVSS”, for which the “polyreactivity (PSR sort gate)” value is listed as “high polyreactivity”.
